± gives the standard deviation of the averaged measurements.
Experiments:
[1] = terephthalic acid (TPA) released, HPLC; higher = more TPA released; extreme values may be limits of the assay; settings: 24 h
Description: (§1)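 Purified PET hydrolases, 2.5 ug enzyme on 3.5 mg amorphous PET film (aFilm) or crystalline PET powder (cryPow) in 0.5 mL of 50 mM buffer (NaCitrate pH 4.5/5.5, NaPhosphate 6.5/7.5, glycine 8.5/9.5) at 60 or 70 C with shaking for 24 h. Total aromatic product by UV-Vis (260/280 nm, blank-subtracted, normalised per mg enzyme) and individual TPA, MHET, BHET concentrations by UHPLC-DAD at 240 nm; duplicate reactions.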

[2] = MHET released, HPLC; higher = more MHET released; extreme values may be limits of the assay; settings: 24 h
Description: as §1

[3] = BHET released, HPLC; higher = more BHET released; extreme values may be limits of the assay; settings: 24 h
Description: as §1

[4] = PET hydrolysis product formed (TPA+MHET+BHET, UV-Vis) per mg enzyme (mmol/mg enzyme); higher = more PET depolymerisation activity; extreme values may be limits of the assay; settings: 2 h
Description: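 Purified PET hydrolases (His-SUMO cleaved, E. coli C41(DE3) small-scale expression), 2.5 ug enzyme on 3.5 mg amorphous PET film (aFilm) or crystalline PET powder (cryPow) in 0.5 mL of 50 mM buffer (NaCitrate pH 4.5/5.5, NaPhosphate 6.5/7.5, glycine 8.5/9.5) at 60 or 70 C with shaking for 2 h. Soluble aromatic products (TPA+MHET+BHET) were quantified by UV-Vis at 260/280 nm, blank-subtracted against the no-enzyme control, and normalised per mg enzyme; duplicate reactions.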

QTNPYARGPDPTAASLEASAGPFTVRSFTVSRPSGYGAGTVYYPTNAGGTVGAIAIVPGYTARQSSIKWWGPRLASHGFVVITIDTNSTLDQPESRSSQQMAALEQVASLNGTSSSPIYGKVDTARMGVMGWSMGGGGSLISACNNPSLKAAVVQAPWHSSTNFSCVTVPTLIFACENDSIAPVNSSALPIYDSMSENAKQFLEICGGSHSCANTGNSDQALIGKKGVAWMKRFMDNDTRYSTFACENPNSTRVCDFRTANCS [Z1-PETase]
Settings | BHET released, [3] [mM] | MHET released, [2] [mM] | PET hydrolysis product formed, [4] | terephthalic acid, [1] [mM]
PET substrate: aFilm, 60 °C, pH 4.5 | 0 | 0 | 0 | 0
PET substrate: aFilm, 60 °C, pH 5.5 | 0 | 0 | 0 | 0
PET substrate: aFilm, 60 °C, pH 6.5 | 0 | 0.321 ± 0.11 | 0 | 0.227 ± 0.03
PET substrate: aFilm, 60 °C, pH 7.5 | 0 | 1.88 ± 0.9 | 0.032 ± 0.00089 | 0.685 ± 0.19
PET substrate: aFilm, 60 °C, pH 8.5 | 0 | 0.249 ± 0.026 | 0.03625 ± 0.00018 | 0.179 ± 0.076
PET substrate: aFilm, 60 °C, pH 9.5 | 0 | 1.03 ± 0.33 | 0.0733 ± 0.012 | 1.22 ± 0.028
PET substrate: aFilm, 70 °C, pH 4.5 | 0 | 0 | 0 | 0
PET substrate: aFilm, 70 °C, pH 5.5 | 0 | 0 | 0 | 0
PET substrate: aFilm, 70 °C, pH 6.5 | 0 | 0 | 0 | 0
PET substrate: aFilm, 70 °C, pH 7.5 | 0 | 0.0119 ± 0.017 | 0 | 0.0109 ± 0.015
PET substrate: aFilm, 70 °C, pH 8.5 | 0 | 0.00565 ± 0.008 | 0 | 0.00307 ± 0.0043
PET substrate: aFilm, 70 °C, pH 9.5 | 0 | 0 | 0.00338 ± 0.0048 | 0.0495 ± 0.037
PET substrate: cryPow, 60 °C, pH 4.5 | 0 | 0 | 0 | 0
PET substrate: cryPow, 60 °C, pH 5.5 | 0 | 0.053 ± 0.043 | 0 | 0.0408 ± 0.032
PET substrate: cryPow, 60 °C, pH 6.5 | 0.00328 ± 0.0046 | 0.476 ± 0.032 | 0.0995 ± 0.044 | 0.114 ± 0.018
PET substrate: cryPow, 60 °C, pH 7.5 | 0 | 0.522 ± 0.033 | 0.135 ± 0.068 | 0.236 ± 0.015
PET substrate: cryPow, 60 °C, pH 8.5 | 0 | 0.343 ± 0.099 | 0.102 ± 0.0012 | 0.225 ± 0.023
PET substrate: cryPow, 60 °C, pH 9.5 | 0 | 0.071 ± 0.022 | 0.13 ± 0.015 | 0.72 ± 0.023
PET substrate: cryPow, 70 °C, pH 4.5 | 0 | 0 | 0 | 0
PET substrate: cryPow, 70 °C, pH 5.5 | 0 | 0 | 0 | 0
PET substrate: cryPow, 70 °C, pH 6.5 | 0 | 0.125 ± 0.011 | 0.0288 ± 0.0056 | 0.0337 ± 0.0038
PET substrate: cryPow, 70 °C, pH 7.5 | 0 | 0.181 ± 0.033 | 0.0688 ± 0.0027 | 0.17 ± 0.03
PET substrate: cryPow, 70 °C, pH 8.5 | 0 | 0.123 ± 0.0094 | 0.0583 ± 0.0029 | 0.0464 ± 0.0031
PET substrate: cryPow, 70 °C, pH 9.5 | 0 | 0.0142 ± 0.0083 | 0.0657 ± 0.0079 | 0.367 ± 0.13

QTNPYARGPNPTAASLEASAGPFTVRSFTVARPVGYGAGTVYYPTNAGGTVGAIAIVPGYTATQSSINWWGPRLASHGFVVITIDTNSTLDKPESRSSQQMAALRQVASLNGTSSSPIYGKVDTARGGVMGWSMGGGGSLISAANNPSLKAAAVMAPWHSSTNFSSVTVPTLIFACENDRIAPVKEYALPIYDSMSLNAKQFLEICGGSHSCACSGNSNQALIGMKGVAWMKRFMDNDTRYSQFACENPNSTAVCDFRTANCS [HotPETase]
Settings | BHET released, [3] [mM] | MHET released, [2] [mM] | PET hydrolysis product formed, [4] | terephthalic acid, [1] [mM]
PET substrate: aFilm, 60 °C, pH 4.5 | 0 | 0 | 0 | 0
PET substrate: aFilm, 60 °C, pH 5.5 | 0 | 0.282 ± 0.044 | 0 | 0.359 ± 0.0079
PET substrate: aFilm, 60 °C, pH 6.5 | 0 | 0.534 ± 0.033 | 0.0257 ± 0.0015 | 0.226 ± 0.034
PET substrate: aFilm, 60 °C, pH 7.5 | 0.045 ± 0.032 | 3.07 ± 1 | 0.0712 ± 0.0097 | 1.04 ± 0.11
PET substrate: aFilm, 60 °C, pH 8.5 | 0 | 0.303 ± 0.0093 | 0.0455 ± 0.00046 | 0.135 ± 0.023
PET substrate: aFilm, 60 °C, pH 9.5 | 0 | 1.8 ± 0.49 | 0.0961 ± 0.036 | 1.35 ± 0.052
PET substrate: aFilm, 70 °C, pH 4.5 | 0 | 0 | 0 | 0
PET substrate: aFilm, 70 °C, pH 5.5 | 0 | 0 | 0 | 0.00384 ± 0.0054
PET substrate: aFilm, 70 °C, pH 6.5 | 0 | 0.0858 ± 0.078 | 0.00383 ± 0.0054 | 0.0729 ± 0.087
PET substrate: aFilm, 70 °C, pH 7.5 | 0 | 0.198 ± 0.22 | 0.0174 ± 0.0077 | 0.17 ± 0.18
PET substrate: aFilm, 70 °C, pH 8.5 | 0 | 0.121 ± 0.0029 | 0.0193 ± 0.0094 | 0.0776 ± 0.023
PET substrate: aFilm, 70 °C, pH 9.5 | 0 | 0.077 ± 0.074 | 0.092 ± 0.024 | 0.684 ± 0.23
PET substrate: cryPow, 60 °C, pH 4.5 | 0 | 0 | 0.00338 ± 0.0048 | 0.0209 ± 0.014
PET substrate: cryPow, 60 °C, pH 5.5 | 0.0125 ± 0.0033 | 0.43 ± 0.018 | 0.0775 ± 0.018 | 0.1228 ± 0.00078
PET substrate: cryPow, 60 °C, pH 6.5 | 0.00555 ± 0.0078 | 0.527 ± 0.066 | 0.106 ± 0.032 | 0.157 ± 0.0075
PET substrate: cryPow, 60 °C, pH 7.5 | 0 | 0.655 ± 0.037 | 0.131 ± 0.033 | 0.3121 ± 0.0016
PET substrate: cryPow, 60 °C, pH 8.5 | 0 | 0.319 ± 0.024 | 0.0736 ± 0.0045 | 0.211 ± 0.0059
PET substrate: cryPow, 60 °C, pH 9.5 | 0 | 0.174 ± 0.029 | 0.0954 ± 0.0097 | 0.681 ± 0.028
PET substrate: cryPow, 70 °C, pH 4.5 | 0 | 0 | 0 | 0
PET substrate: cryPow, 70 °C, pH 5.5 | 0 | 0.163 ± 0.018 | 0.05472 ± 0.00018 | 0.07122 ± 0.00039
PET substrate: cryPow, 70 °C, pH 6.5 | 0.00798 ± 0.003 | 0.386 ± 0.032 | 0.0748 ± 0.0042 | 0.118 ± 0.0081
PET substrate: cryPow, 70 °C, pH 7.5 | 0 | 0.249 ± 0.057 | 0.109 ± 0.0081 | 0.262 ± 0.051
PET substrate: cryPow, 70 °C, pH 8.5 | 0 | 0.268 ± 0.017 | 0.0678 ± 0.0019 | 0.113 ± 0.0023
PET substrate: cryPow, 70 °C, pH 9.5 | 0 | 0.0221 ± 0.0057 | 0.0796 ± 0.014 | 0.489 ± 0.077
